In this series the test system is CC1=CC(=O)c2ccccc2C1=O. As to the kind of experiment: purified protein.

In general, Km refers to the substrate concentration at which the rate is half of its maximum. For orientation: kcat/Km means the second-order rate constant that governs catalysis at low substrate concentration. For the substance (Mycobacterium tuberculosis H37Rv), the Km came out at 17.29 ± 11.63 µM and the kcat/Km came to 94500 M⁻¹ s⁻¹.

Source of the values: PMC3567243 (Molecular Microbiology, 2012).
